Blank lines part the entries; values can stand above or below the molecule they belong to. No end group written: not given here.
B2: iASPP Ank-SH3 (domain or fragment, human, UniProt Q8WUF5 603-828, looked up)
chain: QSMEMRSVLRKAGSPRKARRARLNPLVLLLDAALTGELEVVQQAVKEMNDPSQPNEEGITALHNAICGANYSIVDFLITAGANVNSPDSHGWTPLHCAASCNDTVICMALVQHGAAIFATTLSDGATAFEKCDPYREGYADCATYLADVEQSMGLMNSGAVYALWDYSAEFGDELSFREGESVTVLRRDGPEETDWWWAALHGQEGYVPRNYFGLFPRVKPQRSKV
notes: iASPP (human), four ankyrin repeats and SH3 domain, residues 603-828, Swiss-Prot Q8WUF5; also called iASPP Ank-SH3 603-828; cleaved iASPP Ank-SH3; source: E. coli HMS 174, purified (Nickel Sepharose, TEV cleavage, second Nickel column, size exclusion chromatography); not shown: HLT (His tag, lipoyl domain, TEV protease cleavage site), N-terminal, cleaved

Experiments:
[1] = tested on: HLT-iASPP Ank-SH3; experiment: Peptide array screening: HLT-iASPP Ank-SH3 binding to array of iASPP Pro derived peptides; parameters: species or system human; details: CelluSpots array, N-acetylated 15-residue peptides on cellulose; 5 μM protein, 4 °C overnight; IS = 150 mM, pH 7.0; anti His HRP, chemiluminescence
Procedure: The CelluSpots^TM peptide micro-arrays were synthesized by INTAVIS Bioanalytical Instruments AG, Köln, Germany. The 15 residue peptides were acetylated at their N-termini and attached to a cellulose membrane via their C termini through an amide bond. For screening the binding of the array to HLT-iASPP Ank-SH3 the array was first washed for 4 h at room temperature with 50 mM Tris-HCl pH = 8 at an ionic strength (IS) of 150 mM adjusted by NaCl, 0.05% Tween20 and 2.5% (W/V) skimmed milk (buffer D) for blocking unspecific binding. HLT-iASPP Ank-SH3 was dissolved in 20 mM Phosphate buffer pH = 7.0 IS = 150 mM, 5 mM βME, 10% glycerol and 0.02% NaN3 and 2.5% skimmed milk. 5 ml of 5 μM of the protein were incubated with the arrays at 4 °C with shaking overnight. After three washes with TBST, the array was incubated with anti His HRP conjugated antibody at room temperature for 1 hour. The antibody was dissolved in buffer D. Then the array was washed again three times with TBST. Immunodetection was performed using chemiluminiscence (ECL reagents). Peptide array screening for binding HLT-iASPP Pro was also preformed as above with change of the proteins buffer. HLT-iASPP Pro was dissolved in 50 mM Phosphate buffer pH = 7.0, 10% glycerol, 0.02% NaN3, 0.001% Tween 20, IS = 150 mM and 2.5% skimmed milk.

[2] = biological target: T1, iASPP Ank-SH3 (Homo sapiens, UniProt Q8WUF5); experiment: Fluorescence anisotropy binding of fluorescein-labeled iASPP Pro derived peptides to iASPP Ank-SH3; details: 250 μM iASPP Ank-SH3 titrated into 100 nM fluorescein-labeled peptide, 10 °C, 20 mM Hepes pH 7.3, ionic strength 50 mM
T1 construct: (2) iASPP Ank-SH3 603-828; HLT tag (His tag + lipoyl domain + TEV site) (N, cleaved yes); made in house; host or cells: E. coli HMS 174 (Novagen)
T1 sequence (Q8WUF5 603-828): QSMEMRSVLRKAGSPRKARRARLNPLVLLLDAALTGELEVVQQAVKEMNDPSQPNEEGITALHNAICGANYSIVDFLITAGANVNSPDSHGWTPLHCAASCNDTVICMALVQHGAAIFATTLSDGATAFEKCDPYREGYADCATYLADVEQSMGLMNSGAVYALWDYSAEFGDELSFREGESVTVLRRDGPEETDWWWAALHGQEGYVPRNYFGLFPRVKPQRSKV
Procedure: Binding of the iASPP Pro-derived peptides to iASPP Ank-SH3 was measured by fluorescence anisotropy using a PerkinElmer Life Sciences LS-50b spectrofluorimeter equipped with a Hamilton microlab M dispenser. Titration of iASPP Ank-SH3 into iASPP Pro derived fluorescein-labeled (FL) peptides was performed at 10 °C in 20 mM Hepes buffer, pH 7.3, 43 mM NaCl (total ionic strength = 50 mM), 10% glycerol and 5 mM β-mercaptoethanol. The excitation wavelength was set at 480 nm and the emission measured at 530 nm. The labeled peptide, dissolved in 1 ml buffer to a final concentration of 100 nM, was placed in the cuvette. 250 μM iASPP Ank-SH3 was placed in the dispenser and aliquots of 10–20 μl were added at 1.5 min intervals. The solution was then stirred for 30 sec, and the fluorescence and anisotropy were measured. Data were analyzed using the program Origin8 (OriginLab) and were fit to 1:1 binding model:
[drawing 1] (R- measured fluorescence anisotropy, R0- anisotropy value corresponding to the free peptide, ∆R- amplitude of the fluorescence anisotropy change, [Protein]- protein concentration, Kd- dissociation constant).

[3] = biological target: iASPP 616-623 peptide 616-623 (Homo sapiens) (UniProt Q8WUF5); experiment: ITC; details: cited from earlier work
[4] = biological target: T1, iASPP Ank-SH3; experiment: Nickel affinity pulldown of iASPP Ank-SH3 by HLT-iASPP Pro; format: binding; details: Nickel-NTA beads with HLT-iASPP Pro 1 h at 4 °C, then iASPP Ank-SH3 2 h at 4 °C; SDS-PAGE coomassie staining
Procedure: After purifying the recombinant HLT-iASPP Pro and iASPP Ank-SH3 we tested whether the recombinant proteins interact using Nickel affinity pulldown assay. Nickel-NTA beads were incubated for one hour with HLT-iASPP Pro or with buffer or HLT alone. Then the beads were incubated with iASPP Ank-SH3 for two hours.
Figure 4 HLT-iASPP Pro interacts with iASPP Ank-SH3 in vitro. Nickel affinity pulldown of iASPP Ank-SH3 by HLT-iASPP Pro, SDS PAGE gel coomassie staining results. Nickel-NTA beads were incubated with HLT-iASPP Pro or with buffer or HLT fusion domain alone, for 1 h at 4 °C. The samples were centrifuged and then incubated with iASPP Ank-SH3 for 2 h at 4 °C. The samples were centrifuged again and the beads were washed 3 times. The beads were eluted by boiling them in SDS solution. Ank-SH3 eluted from the beads only in the presence of HLT-iASPP Pro.
30 μl Nickel-NTA beads (Qiagen) were incubated with: (1) 500 μl buffer C (50 mM Phosphate buffer pH = 7.0, 300 mM NaCl, 10% glycerol, 0.02% NaN3 and 0.001% Tween 20); (2) 250 μl 31 μM HLT; (3) 2 ml 1.7 μM HLT-iASPP Pro (in buffer C) for 1 hour with gentle mixing at 4 °C and in the presence of 40 mM imidazole. The samples were centrifuged (2 min 3500 RPM), and washed with buffer C (5 min, 4 °C, gentle mixing). […] Samples were analyzed on a 10% SDS-PAGE gel.

[5] = biological target: T2, HLT-iASPP Pro (human, UniProt Q8WUF5 1-602); experiment: pull-down; Nickel-NTA beads loaded with HLT-iASPP Pro (1.7 uM), HLT (31 uM) or buffer, 1 h, 4 °C, 40 mM imidazole; then iASPP Ank-SH3 (80 ul of 80 uM, diluted in 1 ml 25 mM phosphate pH 7.0, 10% glycerol, 25 mM imidazole, 100 mM NaCl), 2 h, 4 °C; three washes; eluted by boiling in SDS; Coomassie-stained SDS-PAGE; details: both partners purified
T2 construct: iASPP (human), proline rich (Pro) domain, residues 1-602 of the 828-residue protein, Swiss-Prot Q8WUF5; Cloned EcoRI/NotI into pHis parallel 2HLT; calculated Mw with tag 75.9 kDa; also called iASPP Pro 1-602; iASPP 1-602; source: E. coli Rosetta2, purified (Nickel Sepharose, size exclusion chromatography); not shown: HLT (His tag, lipoyl domain, TEV protease cleavage site), N-terminal, kept
T2 sequence (looked up): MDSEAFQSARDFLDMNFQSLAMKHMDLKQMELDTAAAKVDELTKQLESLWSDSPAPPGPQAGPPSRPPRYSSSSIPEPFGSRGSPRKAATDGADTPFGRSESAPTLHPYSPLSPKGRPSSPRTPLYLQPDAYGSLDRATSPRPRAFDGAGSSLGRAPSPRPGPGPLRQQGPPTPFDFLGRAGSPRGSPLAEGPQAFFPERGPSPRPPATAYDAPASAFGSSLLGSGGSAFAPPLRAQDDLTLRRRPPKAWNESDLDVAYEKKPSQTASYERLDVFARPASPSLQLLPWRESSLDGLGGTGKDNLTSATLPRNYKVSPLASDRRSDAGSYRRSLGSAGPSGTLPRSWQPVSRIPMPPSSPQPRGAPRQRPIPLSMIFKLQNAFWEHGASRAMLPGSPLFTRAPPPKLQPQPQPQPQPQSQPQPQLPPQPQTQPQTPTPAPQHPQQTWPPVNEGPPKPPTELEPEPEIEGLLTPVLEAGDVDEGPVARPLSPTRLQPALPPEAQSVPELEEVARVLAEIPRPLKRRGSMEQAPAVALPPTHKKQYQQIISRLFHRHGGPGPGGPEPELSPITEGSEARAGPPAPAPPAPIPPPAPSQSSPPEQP

[6] = biological target: B2; experiment: fluorescence polarisation; fluorescence anisotropy; 250 uM iASPP Ank-SH3 titrated into 100 nM fluorescein-labeled peptide; 10 °C; 20 mM Hepes pH 7.3, 43 mM NaCl (ionic strength 50 mM), 10% glycerol, 5 mM β-mercaptoethanol; fit to a 1:1 model; details: both partners purified

binding of HLT-iASPP Ank-SH3 to the peptide in the array [1]: bound
Molecule: SMEMRSVLRKAGSPR [iASPP 604-618, array peptide, iASPP residues 604-618]

binding to iASPP Ank-SH3 (in words) [2]: did not bind
binding of HLT-iASPP Ank-SH3 to the peptide in the array [1]: did not bind
Molecule: iASPP 83-90: iASPP Pro derived peptide that includes the iASPP phosphorylation site S84 (GSPRKAAT; UniProt Q8WUF5 83-90, looked up, fragment)

Molecule: iASPP Ank-SH3 (from UniProt Q8WUF5)
Kd [3]: 45 µM

pulldown of iASPP Ank-SH3 [4]: retrieved
B1: HLT-iASPP Pro: recombinant iASPP Pro 1-602 with HLT (His-lipoyl domain-TEV) tag (protein)
chain: MDSEAFQSARDFLDMNFQSLAMKHMDLKQMELDTAAAKVDELTKQLESLWSDSPAPPGPQAGPPSRPPRYSSSSIPEPFGSRGSPRKAATDGADTPFGRSESAPTLHPYSPLSPKGRPSSPRTPLYLQPDAYGSLDRATSPRPRAFDGAGSSLGRAPSPRPGPGPLRQQGPPTPFDFLGRAGSPRGSPLAEGPQAFFPERGPSPRPPATAYDAPASAFGSSLLGSGGSAFAPPLRAQDDLTLRRRPPKAWNESDLDVAYEKKPSQTASYERLDVFARPASPSLQLLPWRESSLDGLGGTGKDNLTSATLPRNYKVSPLASDRRSDAGSYRRSLGSAGPSGTLPRSWQPVSRIPMPPSSPQPRGAPRQRPIPLSMIFKLQNAFWEHGASRAMLPGSPLFTRAPPPKLQPQPQPQPQPQSQPQPQLPPQPQTQPQTPTPAPQHPQQTWPPVNEGPPKPPTELEPEPEIEGLLTPVLEAGDVDEGPVARPLSPTRLQPALPPEAQSVPELEEVARVLAEIPRPLKRRGSMEQAPAVALPPTHKKQYQQIISRLFHRHGGPGPGGPEPELSPITEGSEARAGPPAPAPPAPIPPPAPSQSSPPEQP
modifications: left off: HLT (His tag, lipoyl domain, TEV protease cleavage site), N-terminal, kept
notes: recombinant iASPP Pro 1-602 with HLT (His-lipoyl domain-TEV) tag

Molecule: B2
binding result [5]: binds

Kd [6]: 35 ± 2 µM
Molecule: {5(6)‑carboxyfluorescein}-QAGPPSRPPRYSSSS [fluorescein labeled iASPP 60-74]

Kd [6]: 34 ± 2 µM
Molecule: {5(6)‑carboxyfluorescein}-KKQYQQIISRLFHRHGGPGPGGP [fluorescein labeled iASPP 540-562]

— publication PMC4486954, “Highly homologous proteins exert opposite biological activities by using different interaction interfaces” (Scientific Reports, 2015)
